IntAct's records for PubMed 17955262

B1: Frizzled-4 (Homo sapiens), Q9ULV1 (parent)
chain: MAWRGAGPSVPGAPGGVGLSLGLLLQLLLLLGPARGFGDEEERRCDPIRISMCQNLGYNVTKMPNLVGHELQTDAELQLTTFTPLIQYGCSSQLQFFLCSVYVPMCTEKINIPIGPCGGMCLSVKRRCEPVLKEFGFAWPESLNCSKFPPQNDHNHMCMEGPGDEEVPLPHKTPIQPGEECHSVGTNSDQYIWVKRSLNCVLKCGYDAGLYSRSAKEFTDIWMAVWASLCFISTAFTVLTFLIDSSRFSYPERPIIFLSMCYNIYSIAYIVRLTVGRERISCDFEEAAEPVLIQEGLKNTGCAIIFLLMYFFGMASSIWWVILTLTWFLAAGLKWGHEAIEMHSSYFHIAAWAIPAVKTIVILIMRLVDADELTGLCYVGNQNLDALTGFVVAPLFTYLVIGTLFIAAGLVALFKIRSNLQKDGTKTDKLERLMVKIGVFSVLYTVPATCVIACYFYEISNWALFRYSADDSNMAVEMLKIFMSLLVGITSGMWIWSAKTLHTWQKCSNRLVNSGKVKREKRGNGWVKPGKGSETVV
B2: Norrin (Homo sapiens), Q00604 (parent)
chain: MRKHVLAASFSMLSLLVIMGDTDSKTDSSFIMDSDPRRCMRHHYVDSISHPLYKCSSKMVLLARCEGHCSQASRSEPLVSFSTVLKQPFRSSCHCCRPQTSKLKALRLRCSGGMRLTATYRYILSCHCEECNS

Variants of: B1
Conditions: with ndp_human NDP, Q00604

Row | effect of a mutation on the interaction | Variant
1 | decreasing interaction | M105V

Variants of: B2
Conditions: with fzd4_human FZD4, Q9ULV1

Row | effect of a mutation on the interaction | Variant
2 | decreasing interaction | R115L
3 | decreasing interaction | K54D
